Data published in the supplement of paper PMC12042874.
± gives the uncertainty stated by the source.

Assay: amyloid nucleation score (Sup35N fusion, yeast selection) (log enrichment); library NNK2; higher = more nucleation; inactive = no reads after selection
How it was run: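 Peptides of 20 random codons fused to Sup35N were expressed in psi-negative yeast, induced 24 hours with 100 μM copper sulfate, then grown 7 days at 30°C on medium lacking adenine and uracil. Input and output plasmid inserts were Illumina-sequenced. Nucleation score is the DiMSum log enrichment of output over input reads, centred on the mode score of non-aggregating sequences, excluding sequences with under 100 input reads. Random libraries had three technical output replicates.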

Substance	amyloid nucleation score
AADSRYGGNGCFRSMLFALI	0.817 ± 0.45
AAFLNWVVCEIENEEGMSWL	inactive
AAFTRTSP	0.858 ± 0.27
AAILFSGDVLCLLRCYIAIK	-0.291 ± 0.74
AAIRH	-0.328 ± 0.49
AASNQMSQ	inactive
AASRWVVSHKYRWWMMRLMK	0.302 ± 0.23
AASWTPSCNCPPWVFHGWLL	0.16 ± 0.8
ACDVDAMFTKMYSIFFR	0.479 ± 0.62
ACHRFYLMKSML	1.28 ± 0.36
ACNFQVCGWERQSSRFR	3.14 ± 0.087
ACQYLGLETPKWCGINRWGL	0.324 ± 0.26
ACRLVYNLGRVHLGNHSDIL	-0.225 ± 1
ADEVLYYGCVSSCLMFGVLI	-0.069 ± 0.35
ADFFVLDMWLTYCMKTLFSC	-1.27 ± 0.48
ADSVYAVRRKAV	0.356 ± 0.8
AEAISQLEAMR	1.13 ± 0.39
AEAWGVFYHWHDT	-0.493 ± 0.53
AELLYMFWACNFSWSMPL	-0.986 ± 0.76
AESVCYQMTCIPCLLIFNTV	8.966 ± 0.054
AETLPFWGNG	0.695 ± 0.57

Substance	amyloid nucleation score
AFLNFTDRKSQWKVMVIEFL	3.3 ± 0.096
AFRVNWYDQNRYVEVKG	0.292 ± 0.4
AFSVFSWSFQWQTSCWQICE	5.022 ± 0.038
AFVNVVGLVYSF	-1.42 ± 0.45
AFYMIRH	3.66 ± 0.076
AGEQEVDGPVIQRWSGFTTR	2.2 ± 0.21
AGGWVFFQGESSSLSNTSGS	inactive
AGLRGIHEIGLLDAKWDDNH	inactive
AGPWGVSTFYAVHLLASLYP	-0.446 ± 0.79
AGRNIGIHIVGLDRQRSSAN	0.278 ± 0.31
AGVSLFVHGNL	4.45 ± 0.095
AHAPGPNEA	0.276 ± 0.8
AHHLSFGVNDCSTCERSVQ	0.77 ± 0.28
AHLRITFSMSMNMQLFMVLR	0.587 ± 0.48
AHQHWQRGFEEHPEIRFIHW	4.29 ± 0.11
AIASLTRTFSA	0.167 ± 0.42
AIIPRMLKYRERGKPTKRDT	0.291 ± 0.24
AILGLYVYMGSWHKGVSGVI	inactive
AIQLCLWSKRSQGRWFTLPV	0.82 ± 0.47
AISRRALKTHHFKWGCNVG	0.266 ± 0.19
AIWSVLYGGRYTMPHSIFGA	0.448 ± 0.38

Substance	amyloid nucleation score
AIWVYRPLVIQGTFGIRPA	6.15 ± 0.08
AKGMGPKNDTTYYFPVSVFE	-0.213 ± 0.48
ALCKMQLITSSYQGPATEDL	-0.168 ± 0.76
ALECHIRLKWRVSVGPGVLV	1.17 ± 0.28
ALFIEISPLTINLFTNAKSL	-1.06 ± 0.76
ALGSRINYQKGLMQNRTGKG	-0.649 ± 0.76
ALIGLWVGKPFPGGMLVLFM	0.24 ± 0.3
ALILVAMSVFLSAGLRVMIK	inactive
ALKFHGSNDSRFLI	-0.756 ± 1
ALNSPFMLQFLDWL	0.11 ± 0.76
ALPAFELGEFNNADHSHDDN	-0.464 ± 1.1
ALSSFIGVRNLQAQGHFTQI	0.638 ± 0.36
ALYLL	0.154 ± 0.23
AMDASR	1.7 ± 0.12
AMERDYFLTVTCDRVKYLGE	1.01 ± 0.4
AMFTSSMIRTLGCCSGSQTA	4.14 ± 0.13
AMLLNILVPYVYSKTGRGPV	1.88 ± 0.33
AMNVDIN	-0.641 ± 0.24
AMRWFGKYSRFWNGYIRNWI	-0.193 ± 0.76
AMYFRVVLA	1.25 ± 0.31
ANAAV	1.12 ± 0.61

Substance	amyloid nucleation score
ANCATSVLCCSGCV	0.878 ± 0.14
ANGVSILDFRKHATFWWWET	-0.103 ± 0.29
ANLCSAT	-0.799 ± 0.44
ANLRLYICWGFDKSVINIKS	6.908 ± 0.038
ANQSVYLAEAVYQAGIEGRD	0.358 ± 0.24
ANRNRYNLHWDMG	0.946 ± 0.6
ANSMLVF	-0.573 ± 0.4
ANSVCDNVVTVSLLRLYMVL	5.39 ± 0.071
ANSYYIVYLGPHHAYFFILK	3.75 ± 0.12
ANTCVPPLLRMFPLRGRTHI	-0.184 ± 1.1
ANTWVKHTLCVGRLQGDWGI	-0.029 ± 0.42
APNMKSNLYFPEVRLNEGSR	0.714 ± 0.53
APSLIYFNVST	3.75 ± 0.13
AQFVKWAVNLLGSRYSWYEQ	inactive
AQGSRDSNRRVEASACY	-0.09 ± 0.63
ARDRNSFGLDCAVFMSYFTT	3.34 ± 0.11
ARKYLRCGSACVKVEYF	3.51 ± 0.047
ARNRSSIKWGRGSDYGFTEL	0.451 ± 0.65
ARSDLNMRTFFVWASLFVLS	4.43 ± 0.056
ARVALRLIYDMDRVLWPDSY	5 ± 0.067
